Positions count from the first letter of the chain named.
Molecular target: T1, full-length hCDCP1 with N-terminal c-Myc tag (expression vector GS01), on Ba/F3-hCDCP1 cells or … (human, UniProt Q9H5V8 30-836)
T1 construct: also called human CDCP1; hCDCP1 forced expression cells
T1 sequence: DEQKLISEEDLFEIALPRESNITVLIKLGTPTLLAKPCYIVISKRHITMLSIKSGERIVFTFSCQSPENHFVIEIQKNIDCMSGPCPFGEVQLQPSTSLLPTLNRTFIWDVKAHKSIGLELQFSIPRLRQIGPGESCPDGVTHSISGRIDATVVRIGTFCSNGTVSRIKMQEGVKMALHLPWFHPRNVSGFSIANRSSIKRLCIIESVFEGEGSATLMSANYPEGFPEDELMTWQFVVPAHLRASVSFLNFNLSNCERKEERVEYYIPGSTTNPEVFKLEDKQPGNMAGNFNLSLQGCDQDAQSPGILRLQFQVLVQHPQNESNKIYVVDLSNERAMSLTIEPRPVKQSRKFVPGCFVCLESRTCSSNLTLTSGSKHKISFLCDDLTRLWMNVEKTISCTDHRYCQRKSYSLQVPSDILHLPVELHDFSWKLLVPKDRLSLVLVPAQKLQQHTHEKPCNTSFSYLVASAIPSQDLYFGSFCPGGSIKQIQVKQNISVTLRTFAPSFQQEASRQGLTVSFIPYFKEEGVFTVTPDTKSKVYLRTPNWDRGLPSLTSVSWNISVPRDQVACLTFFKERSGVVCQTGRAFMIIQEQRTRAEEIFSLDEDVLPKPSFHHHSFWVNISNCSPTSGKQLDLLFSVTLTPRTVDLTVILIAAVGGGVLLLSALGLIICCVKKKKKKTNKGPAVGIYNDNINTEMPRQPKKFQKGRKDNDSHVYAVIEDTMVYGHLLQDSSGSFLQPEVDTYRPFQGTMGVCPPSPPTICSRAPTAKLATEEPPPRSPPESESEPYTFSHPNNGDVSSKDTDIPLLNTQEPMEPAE
Assay: flow cytometry on Ba/F3-hCDCP1 cells

B1: h14A043VH1/VL1 (antibody, human IgG1, kappa)
heavy: not shown
light: EIVLTQSPATLSLSPGERATLSCSASSSVSYLYWYQQKPGQAPRPWIYLTSNLASGVPARFSGSGSGTDFTLTISSLEPEDFAVYYCQQWSSNPFTFGGGTKVEIKRTVAAPSVFIFPPSDEQLKSGTASVVCLLNNFYPREAKVQWKVDNALQSGNSQESVTEQDSKDSTYSLSSTLTLSKADYEKHKVYACEVTHQGLSSPVTKSFNRGEC
notes: humanized antibody, human IgG1/kappa constant regions; also called h14A043VH1/VL1-biotin (biotinylated form)
B1: binds.

B2: h14A043VH2/VL1 (antibody, human IgG1, kappa)
heavy: not shown
light: B1 light
notes: humanized antibody, human IgG1/kappa constant regions; also called h14A043VH2/VL1-biotin (biotinylated form)
B2: binds.

B3: h14A043VH2/VL2 (antibody, human IgG1, kappa, V domains shown)
VH: QVQLVQSGAEVKKPGSSVKVSCKASGFNIKDYYMNWVRQAPGQGLEWIGWIDPENANTIYDPKFQGRATITADESTSTAYMELSSLRSEDTAVYYCYGSSYRFTYWGQGTLVTVSS
VL: EIVLTQSPATLSLSPGERATLSCSASSSVSYLYWYQQKPGQAPRPWIYLTSNLASGVPARFSGSGSGTDYTLTISSLEPEDFAVYYCQQWSSNPFTFGGGTKVEIKR
notes: humanized antibody, human IgG1/kappa constant regions
B3: binds.

B4: h14A043VH1/VL3 (antibody, human IgG1, kappa)
heavy: not shown
light: B1 light with T5I
notes: humanized antibody, human IgG1/kappa constant regions; also called h14A043VH1/VL3-biotin (biotinylated form)
B4: binds.

B5: h14A043VH1/VL2 (antibody, human IgG1, kappa, V domains shown)
VH: B3 VH with A68V
VL: B3 VL
notes: humanized antibody, human IgG1/kappa constant regions; also called h14A043VH1/VL2-biotin (biotinylated form)
B5: binds.

B6: mh14A025HCv15/LCori (antibody, human IgG1, kappa, V domains shown)
VH: EVQLQESGAELVRPGALVKLSCKASGFNIKDYYMHWVKQRPEQGLEWIGWIDPENLNTIYDPKFQGKASITADTSSNTAYLQLSSLTSEDTAVYYCGGLLYAMDYWGQGTSVTVSS
VL: DIQMTQTTSSLSASLGDRVTISCRASQDISNYLNWYQQKPDGTVKLLIYFTSRLHSGVPSRFSGSGSGTDYSLTISNLEQEDIATYFCQQGNTLPRTFGGGTKLEIRR
notes: mouse-human chimeric antibody, human IgG1/kappa constant regions
B6: binds.

B7: mh14A043HCv1/LCv1 (antibody, human IgG1, kappa, V domains shown)
VH: B6 VH with H35N, N55S, L56G, G97Y, L99S, L100S, A102R, M103F, D104T, S111L
VL: QIVLIQSPALMSASPGEKVTMTCSASSSVSYLYWYQQKPRSSPKPWIYLTSNLASGVPARFSGSGSGTSYSLTISSMEAEDAATYYCQQWSSNPFTFGSGTKLEIKR
notes: as for B6
B7: binds.

B8: mh14A025HCv17/LCori (antibody, human IgG1, kappa, V domains shown)
VH: B6 VH with L56M
VL: B6 VL
notes: as for B6
B8: binds.

B9: mh14A025HCv21/LCori (antibody, human IgG1, kappa, V domains shown)
VH: B6 VH with N55T, L56G
VL: B6 VL
notes: as for B6
B9: binds.

B10: mh14A043HCv2/LCv1 (antibody, human IgG1, kappa, V domains shown)
VH: B6 VH with H35N, L56A, G97Y, L99S, L100S, A102R, M103F, D104T, S111L
VL: B7 VL
notes: as for B6
B10: binds.

B11: mh14A043HCori/LCv1 (antibody, human IgG1, kappa, V domains shown)
VH: B6 VH with H35N, L56G, G97Y, L99S, L100S, A102R, M103F, D104T, S111L
VL: B7 VL
notes: as for B6
B11: binds.

B12: mh14A043HCv1/LCori (antibody, human IgG1, kappa, V domains shown)
VH: B6 VH with H35N, N55S, L56G, G97Y, L99S, L100S, A102R, M103F, D104T, S111L
VL: B7 VL with L32M
notes: as for B6
B12: binds.

B13: mh14A025HCv24/LCori (antibody, human IgG1, kappa, V domains shown)
VH: B6 VH with N55W, L56G
VL: B6 VL
notes: as for B6
B13: binds.

B14: mh14A025HCv19/LCori (antibody, human IgG1, kappa, V domains shown)
VH: B6 VH with N55R, L56G
VL: B6 VL
notes: as for B6
B14: binds.

B15: mh14A043HCv2/LCori (antibody, human IgG1, kappa, V domains shown)
VH: B6 VH with H35N, L56A, G97Y, L99S, L100S, A102R, M103F, D104T, S111L
VL: B7 VL with L32M
notes: as for B6
B15: binds.

B16: h12A041VH1/VL (antibody, human IgG1, kappa, V domains shown)
VH: QVTLRESGPALVKPTQTLTLTCTFSGFSLSTSGMGVSWIRQPPGKALEWLAHIYWDDDKRYNPSLKSRLTISKDTSKNQVVLTMTNMDPVDTATYYCARSGSYYGSSLDSWGQGTTVTVSS
VL: DIVMTQSPLSLPVTPGEPASISCRSSQSIVHSSGNTYLEWYLQKPGQSPQLLIYKVSNRFSGVPDRFSGSGSGTDFTLKISRVEAEDVGVYYCFQGSHVPWTFGGGTKVEIKR
notes: humanized antibody, human IgG1/kappa constant regions; also called h12A041VH1/VL-biotin (biotinylated form)
B16: binds.

B17: h12A041VH1A/VL (antibody, human IgG1, kappa, V domains shown)
VH: B16 VH with S32F
VL: B16 VL
notes: humanized antibody, human IgG1/kappa constant regions; also called h12A041VH1A/VL-biotin (biotinylated form)
B17: binds.

B18: h12A041VH2/VLA (antibody, human IgG1, kappa, V domains shown)
VH: B16 VH with A46G
VL: B16 VL with H31Y
notes: as for B3
B18: binds.

B19: h12A041VH2A/VLA (antibody, human IgG1, kappa, V domains shown)
VH: B16 VH with S32F, A46G
VL: B16 VL with H31Y
notes: as for B3
B19: binds.

B20: h12A041VH2/VLB (antibody, human IgG1, kappa, V domains shown)
VH: B16 VH with A46G
VL: B16 VL with S28N, S33D
notes: as for B3
B20: binds.

B21: h12A041VH2A/VLB (antibody, human IgG1, kappa, V domains shown)
VH: B16 VH with S32F, A46G
VL: B16 VL with S28N, S33D
notes: as for B3
B21: binds.

B22: h12A041VH2A/VL (antibody, human IgG1, kappa, V domains shown)
VH: B16 VH with S32F, A46G
VL: B16 VL
notes: as for B3
B22: binds.

B23: h12A041VH2/VL (antibody, human IgG1, kappa, V domains shown)
VH: B16 VH with A46G
VL: B16 VL
notes: as for B3
B23: binds.

B24: h12A041VH1A/VLB (antibody, human IgG1, kappa, V domains shown)
VH: B16 VH with S32F
VL: B16 VL with S28N, S33D
notes: as for B3
B24: binds.

B25: h12A041VH1A/VLA (antibody, human IgG1, kappa, V domains shown)
VH: B16 VH with S32F
VL: B16 VL with H31Y
notes: as for B3
B25: binds.

B26: h12A041VH1/VLB (antibody, human IgG1, kappa, V domains shown)
VH: B16 VH
VL: B16 VL with S28N, S33D
notes: humanized antibody, human IgG1/kappa constant regions; also called h12A041VH1/VLB-biotin (biotinylated form)
B26: binds.

B27: h12A041VH1/VLA (antibody, human IgG1, kappa, V domains shown)
VH: B16 VH
VL: B16 VL with H31Y
notes: humanized antibody, human IgG1/kappa constant regions; also called h12A041VH1/VLA-biotin (biotinylated form); h12A041VH1NLA-biotin
B27: binds.

B28: mh14A063HCori/LCv1 (antibody, human IgG1, kappa, V domains shown)
VH: EVQLQESGGGLVQPGGSLKLSCAASGFTFSSYTMSWVRQTPEKRLEWVAYISNGGGSTYYPDTVKGRFTISRDNAKNTLYLQMSSLKSEDTAMYYCARYDLGFAYWGQGTLVTVSS
VL: NIVLTQSPASLAVSLGQRATISCRASESVDSYGNSFLHWYQQKPGQPPKLLIFLASNLESGVPARFSGSGSRTDFTLTIDPVEADDAATYYCQQNNEDPWTFGGGTNLEIKR
notes: as for B6
B28: binds.

B29: mh14A063HCv2/LCv1 (antibody, human IgG1, kappa, V domains shown)
VH: B28 VH with G54A
VL: B28 VL
notes: as for B6
B29: binds.

B30: mh14A063HCv2/LCori (antibody, human IgG1, kappa, V domains shown)
VH: B28 VH with G54A
VL: B28 VL with L37M
notes: as for B6
B30: binds.

B31: mh14A063HCv1/LCv1 (antibody, human IgG1, kappa, V domains shown)
VH: B28 VH with N53S
VL: B28 VL
notes: as for B6
B31: binds.

B32: mh14A063HCv1/LCori (antibody, human IgG1, kappa, V domains shown)
VH: B28 VH with N53S
VL: B28 VL with L37M
notes: as for B6
B32: binds.

— patent US20230050380A1 (CHIOME BIOSCIENCE, published 2023)
